Columns and labels:
[1] = Gal-T specific activity assay; format: biochemical; conditions: donor 500 μM; acceptor β-benzyl-GlcNAc 25 mM (10 mM for C342T); saturating conditions
Method: (§1) For example, the galactose and N-acetylgalactosyltransferase activity of β(1,4)-galactosyltransferase I can be determined using the following assay conditions. […], 10 mM MnCl2, 10 mM Tris-HCl (pH 8.0), 500 μM UDP-Gal or UDP-GalNAc, and 20 ng of β(1,4)-galactosyltransferase I can be incubated at 37° C. for 10 minutes to promote coupling of a donor sugar to an acceptor sugar. While these conditions are provided as an example, it is understood that many other conditions may be used to chemically link a donor to an acceptor using the altered catalytic domains of the invention.
(§2) Gal-T and GalNAc-T Enzyme Assays: The protein concentrations were measured using the Bio-Rad protein assay kit, based on the method of Bradford and further verified on SDS gel. […] The activities were measured using UDP-Gal or UDP-GalNAc as sugar nucleotide donors, and GlcNAc and Glc as the acceptor sugars. For the specific activity measurements, […], 10 mM MnCl2, 10 mM Tris-HCl, pH 8.0, 500 μM UDP-Gal or UDP-GalNAc, 20 ng of Gal-T1, and 0.5 μCl of [^3H]UDP-Gal or [^3H]UDP-GalNAc was used for each Gal-T or GalNAc-T reaction. The incubation was carried out at 37° C. for 10 min. […] The column was washed successfully with 300, 400, and 500 μl of water, and the column flow-through was diluted with Biosafe scintillation fluid; radioactivity was measured with a Beckman counter. A reaction without the acceptor sugar was used as a control. A similar assay was carried out to measure the GalNAc-T activity with Glc and other acceptors in the presence of 50 μM bovine LA (Sigma).

[2] = GalNAc-T specific activity assay; format: biochemical
Method: as §1, §2

[3] = GlcNAc-T specific activity assay; format: biochemical; conditions: donor 500 μM; acceptor β-benzyl-GlcNAc 25 mM
[4] = Two-substrate kinetic constants, Gal-T reaction; format: biochemical
Description: (§3) Studies for Determining the Kinetic Constants: The true Km of the donor (KA) and of the acceptor (KB), the dissociation constant of the donor, Ki(a), and kcat were obtained using two-substrate analyses and the primary plots of five concentrations of donor (UDP-Gal or UDP-GalNAc) and five concentrations of acceptor, and the corresponding secondary plots of the intercepts and slopes. Initial rate conditions were linear with respect to time. A suitable range of donor and acceptor concentrations were chosen, which allowed an accurate Michaelis-Menten plot to be derived. The data were also analyzed for a general two-substrate system using the following equations (Zhang et al., Glycobiology, 9:815-822 (1999)) with the software EnzFitter, a Biosoft nonlinear curve-fitting program for Windows.
(§4) [formula] Here v is the initial velocity and the rate equation for sequential symmetrical initial velocity pattern associated with Equation 1, an ordered or random equilibrium mechanism in which substrate A dissociates well from the E-S complex with a dissociation constant of Ki(a). Equation 2 is for asymmetric initial velocity pattern for a double displacement or “ping-pong” mechanism. The kinetic parameters KA, KB, Ki(a), and Vmax, were obtained from the fitted curves using the above rate equations. The graphical method and EnzFitter program gave very similar kinetic parameters. In the N-acetylgalactosamine transferase (GalNAc-T) assay, the maximum substrate concentrations used for UDP-GalNAc and GlcNAc were 1 and 200 mM, respectively. However, in the galactose transferase (Gal-T) assay, because of the limited solubility of GlcNAc in water, the concentration of GlcNAc was limited to no more than […] (which is 2-fold higher than its Km value), whereas up to 300 μM UDP-Gal were used.

[5] = Two-substrate kinetic constants, GalNAc-T reaction; format: biochemical
Description: as §3, §4

[6] = GalNAc-T activity in absence and presence of LA, acceptor GlcNAc; format: biochemical; conditions: acceptor GlcNAc 100 mM, 500 μM UDP-GalNAc, 37° C., 10 minutes
Method: (§5) Gal-T and GalNAc-T Enzyme Assays: The protein concentrations were measured using the Bio-Rad protein assay kit, based on the method of Bradford and further verified on SDS gel. […] The activities were measured using UDP-Gal or UDP-GalNAc as sugar nucleotide donors, and GlcNAc and Glc as the acceptor sugars. For the specific activity measurements, a 100-μl incubation mixture containing 50 mM β-benzyl-GlcNAc, 10 mM MnCl2, 10 mM Tris-HCl, pH 8.0, 500 μM UDP-Gal or UDP-GalNAc, 20 ng of Gal-T1, and 0.5 μCl of [^3H]UDP-Gal or [^3H]UDP-GalNAc was used for each Gal-T or GalNAc-T reaction. The incubation was carried out at 37° C. for 10 min. […] The column was washed successfully with 300, 400, and 500 μl of water, and the column flow-through was diluted with Biosafe scintillation fluid; radioactivity was measured with a Beckman counter. A reaction without the acceptor sugar was used as a control. […]

[7] = GalNAc-T activity in absence and presence of LA, acceptor Glc; format: biochemical; conditions: for GalNAc-T activity: acceptor Glc 100 mM, 500 μM UDP-GalNAc, 37° C., 10 minutes
Method: as §5

[8] = GalNAc-T activity in absence and presence of LA, acceptor Glucosamine; format: biochemical; conditions: acceptor Glucosamine 100 mM, 500 μM UDP-GalNAc, 37° C., 10 minutes
Method: as §5

[9] = β4Gal-T1 enzyme assay of in vitro folded CD and SRCD proteins; format: biochemical; conditions: folded under condition I
Method: β4Gal-T1 Enzyme Assays: The in vitro assay for β4Gal-T1 enzyme activity was performed as described (Boeggeman et al., Glycobiology, 12:395-407 (2002)). The ^3H-labeled-UDP-Gal was used as sugar donor and GlcNAc as the sugar acceptor. A reaction without GlcNAc was used as a control.
Binding of recombinant proteins to UDP-affinity column: UDP-agarose was used to bind the active proteins at 4° C. Columns containing 1 ml bed volume of UDP-agarose were pre-equilibrated with 10 ml of 25 mM cacodylic buffer, pH 7.6, containing 25 mM MnCl2. The renatured protein solutions (0.5 mg) were adjusted to the pre-equilibration buffer conditions and applied to the columns. After loading the sample, the pass-through was re-cycled. It was then analyzed for the unbound protein by SDS-PAGE. The columns were washed 3× with 1-ml portions of equilibration buffer. The bound protein was eluted with the elution buffer consisting of 25 mM cacodylic buffer, pH 7.6, 25 mM EDTA and 1 M NaCl. Fractions of 0.5 ml were collected from the columns, and aliquots were analysed by SDS-PAGE. For enzymatic analysis the appropriate fractions were pooled and dialysed against 50 mM Tris-HCl pH 8.0 at 4° C. […]

[10] = Stability of the folded recombinant proteins; format: physicochemical; conditions: after folding and purification from inclusion bodies
Method: Mutation of the stem region of bovine β4Gal-T1 to inhibit proteolysis: The wild-type bovine SRCDβ4Gal-T1, which has Ser at position 96, was expressed in E. coli. […] The protein was electroblotted to polyvinylidene difluoride membrane, and the N-terminal sequence of the cleaved fragment was determined by Edman degradation at the Protein Chemistry Laboratory, NCI-Frederick. The N-terminal sequence of the fragment was determined as SRAPSNLD (SEQ ID NO: 21). This corresponds to the cleavage at Ser96 within the sequence region KPR^96SRAPSNLD (SEQ ID NO: 22). To prevent this proteolytic digestion within the stem region, we now constructed a mutant substituting Ala in place of Ser96. This prevented the cleavage within the stem region of bovine β4Gal-T1 keeping the recombinant protein intact for a long period of time. Even though, the experimental results described in this study are with the mutant bovine S96A-SRCDβ4Gal-T1 (FIG. 3A), for the sake of convenience in abbreviation this protein is simply referred to as bovine SRCDβ4Gal-T1.

[11] = UDP-N-acetylgalactosamine → GlcNAc

B1: Y289L_C342T: bovine Gal-T1 catalytic domain (residues 130-402), Tyr-289 exchanged with Leu, with Cys-342 to Thr mutation (protein)
chain: SLTACPEESPLLVGPMLIEFNIPVDLKLIEQQNPKVKLGGRYTPMDCISPHKVAIIILFRNRQEHLKYWLYYLHPMVQRQQLDYGIYVINQAGESMFNRAKLLNVGFKEALKDYDYNCFVFSDVDLIPMNDHNTYRCFSQPRHISVAMDKFGFSLPYVQLFGGVSALSKQQFLSINGFPNNYWGWGGEDDDIYNRLAFRGMSVSRPNAVIGKTRMIRHSRDKKNEPNPQRFDRIAHTKETMLSDGLNSLTYMVLEVQRYPLYTKITVDIGTPS
UDP-galactose → GlcNAc Gal-T activity [1]: 16.2 pmol/min/ng | galactose transferase versus N-acetylgalactosyltransferase activity ([2]; comparison in words (Table III, FIG. 1)): equally strong galactose transferase and N-acetylgalactosyltransferase activities | UDP-GalNAc → GlcNAc GalNAc-T activity ([2]; donor 500 μM, acceptor β-benzyl-GlcNAc 25 mM): 27.3 pmol/min/ng | UDP-GlcNAc → GlcNAc GlcNAc-T activity [3]: 8.2 pmol/min/ng | catalytic constant (kcat) relative to wild type ([4]; Gal-T1 reaction): comparable with the wild type | Km for the acceptor relative to wild-type Gal-T1 ([4]; Gal-T reaction): ~20 fold | KA (true Km of the donor), Gal-T ([4]; UDP-galactose → GlcNAc): 75 (1) μM | KB (true Km of the acceptor), Gal-T ([4]; UDP-galactose → GlcNAc): 198 mM | Kcat., Gal-T ([4]; UDP-galactose → GlcNAc, unit assumed): 8.5 s⁻¹ | catalytic constant (kcat), fold higher ([5]; GalNAc reaction): 3-5 fold | KA (true Km of the donor), GalNAc-T [5, 11]: 854 (8) μM | KB (true Km of the acceptor), GalNAc-T [5, 11]: 51 (1) mM | Kcat., GalNAc-T [5, 11]: 4.0 | GalNAc-T activity ([6]; +LA 55 μM): 3.3 pmol/min/ng | GalNAc-T activity ([6]; −LA): 31.3 pmol/min/ng | GalNAc-T activity ([7]; +LA 55 μM): 34.8 pmol/min/ng | GalNAc-T activity ([7]; −LA): 2.6 pmol/min/ng | acceptor preference of GalNAc transfer ([7]; in the presence of LA): transfer GalNAc preferably to Glc rather than to GlcNAc | GalNAc-T activity ([8]; +LA 55 μM): 5.0 pmol/min/ng | GalNAc-T activity ([8]; −LA): 1.8 pmol/min/ng

B2: human SRCDβ4Gal-T1: human stem region/catalytic domain β4Gal-T1, not mutated (protein, listed as Homo sapiens)
chain: RDLSRLPQLVGVSTPLQGGSNSAAAIGQSSGDLRTGGARPPPPLGASSQPRPGGDSSPVVDSGPGPASNLTSVPVPHTTALSLPACPEESPLLVGPMLIEFNMPVDLELVAKQ
specific activity after elution from UDP-agarose versus before loading [9]: 6 fold | stability against cleavage within the stem region [10]: only after long periods of time

Reference: US7482133B2, “Catalytic domains of β(1,4)-galactosyltransferase I having altered donor and acceptor specificities, domains that promote in vitro protein folding, and methods for their use” (The United States of America as represented by the …, priority 2003, dated 2009)
